Where no end group is shown, it is not given here.
T1: elastase (Homo sapiens, UniProt P08246)
T1 construct: purchased Elastin Products Company, Inc. (Owensville, MO, USA)
T1 sequence (P08246 30-267): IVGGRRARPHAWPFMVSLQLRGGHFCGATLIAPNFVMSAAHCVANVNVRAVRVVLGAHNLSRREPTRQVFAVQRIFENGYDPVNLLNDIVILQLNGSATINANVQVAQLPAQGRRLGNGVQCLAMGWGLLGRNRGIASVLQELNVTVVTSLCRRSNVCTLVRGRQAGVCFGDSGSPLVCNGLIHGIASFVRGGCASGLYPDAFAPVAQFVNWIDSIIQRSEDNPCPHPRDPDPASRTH


What was measured:
[1] = target: T1, elastase; conditions: pathologic conditions associated with neutrophil dysfunction; ref [22]; cited from earlier work
From the text: Neutrophils also release granule contents containing enzymes such as elastase, proteinase-3, and cathepsin G. Elastase, a particularly inflammatory enzyme, interferes with thrombomodulin function, and cleaves TF pathway inhibitor (TFPI), the physiological inhibitor of the extrinsic pathway. […] Elastase also induces proteinase-activated receptor activation, contributes to cytokine production and processing, inactivates metalloprotease inhibitors, deg ...

[2] = system: inflammation; conditions: ref [14]; cited from earlier work
From the text: (§1) In fact, platelets […] ...

[3] = system: neutrophils; assay: Neutrophil-induced coagulation; format: cell-based, human; conditions: DNAse (Dornase alfa) 4 µg/ml, 1 h, then PMA 50 nM, 3 h
Description: A) Platelet aggregation. Washed human platelets were stimulated with elastase only (500 nM, left panel), or cathepsin G only (110 nM, middle tracing), or elastase followed by cathepsin G (right tracing). […] Aggregation response was monitored by turbidimetry using a Lumi-Aggregometer. D) TFPI cleavage. […] After 2 h, reactions were stopped by addition of LDS loading buffer (under reducing conditions, 10 mM DTT), boiled for 5 min, and loaded in 4–12% Nu-PAGE gel. Gels were Coomassie Blue-stained. E) Neutrophil-induced coagulation. […] Fifty µl of this suspension was added to 50 µl of plasma, and reactions were started by addition of CaCl2 (12.5 mM, final concentration)(*, p<0.05).
(§2) Whole blood (5 mL collected in 0.5 mL of 3.2% sodium citrate) from healthy donors was diluted in an equal volume of PBS, layered over 5 mL of HISTOPAQUE solution (10771, Sigma Aldrich), and centrifuged for 40 min, at 400×g, at room temperature. The lower interphase having granulocytes was collected and transferred to a 15-ml Falcon tube and resuspended in 10 ml ammonium chloride lysis buffer (1.7 M NH4Cl, […], 1 mM EDTA) to lyse red blood cells. Lysis was carried out twice followed by centrifugation for 10 min at 400×g. Neutrophils were washed with PBS and resuspended at 1×10^6 cells/mL in high glucose DMEM (GIBCO). Neutrophils were kept on ice. […]

[4] = system: baboons; conditions: NETs-related thrombosis, DNase treatment; ref [19]; cited from earlier work
From the text: as §1

[5] = system: neutrophils; assay: NETs formation; format: cell-based, human; conditions: DNAse (Dornase alfa) 4 µg/ml; not shown
Description: Left panel, non-activated neutrophil (no PMA). Formation of NETs was visualized under confocal microscopy, using antibody against citrullinated histone. Representative experiment is shown (4 different donors). B) Quantification. Performed as described in Methods.
as §2, with “400×g.” for “400×g. Neutrophils were washed with PBS and resuspended at 1×10^6 cells/mL in high glucose DMEM (GIBCO). Neutrophils were kept on ice.”
Cells were fixed with 500 µl of 4% paraformaldehyde (final concentrations) for 10 min, washed 3 times with PBS and incubated for 10 min with blocking solution (PBS, 10%FBS, 5 mg/ml BSA). […] NETs were quantified according to Farley et al. Briefly, NETs were identified on digitalized images as Hoechst-positive fibrils emanating from cells with an overall length at least twice as long as the cell diameter and were counted for at least two fields of view per variable. Results were expressed as the percentage of NETs/total number of granulocytes.

Molecule	clinical trial results [1]	inflammation in several in vivo models [2]	pro-coagulant activity of PMA-activated neutrophils [3]	thrombosis in baboons [4]	NETs-associated fluorescence signal [5]
Elafin: potent elastase inhibitor purified from bronchial secretions (AQEPVKGPVSTKPGSCPIILIRCAMLNPPNRCLKDTDCPGIKKCCEGSCGMACFVPQ; ends and bridges not checked; cysteine pairing not given here; UniProt P19957 61-117, looked up)	mixed results	blocks inflammation			
DNAse: DNAse (Dornase alfa, Genentech Inc.) (protein, UniProt P24855 23-282, looked up) Deoxyribonuclease-1: LKIAAFNIQTFGETKMSNATLVSYIVQILSRYDIALVQEVRDSHLTAVGKLLDNLNQDAPDTYHYVVSEPLGRNSYKERYLFVYRPDQVSAVDSYYYDDGCEPCGNDTFNREPAIVRFFSRFTEVREFAIVPLHAAPGDAVAEIDALYDVYLDVQEKWGLEDVMLMGDFNAGCSYVRPSQWSSIRLWTSPTFQWLIPDSADTTATPTHCAYDRIVVAGMLLRGAVVPDSALPFNFQAAYGLSDQLAQAISDHYPVEVMLK			reversed	prevented	completely abrogated

From article PMC4161438 (PLoS Pathogens, 2014)
